From US20240101716A1 (LA NOVA MEDICINES DEVELOPMENT, published 2024) come the findings set out here.

Test [1] has as its target T1, recombinant human SIRPα variant 2 protein (human, UniProt P78324 31-370, limits assumed).
T1 construct: polymorphic variant 2; also called SIRPα v2; hSIRPαV2
In words: SPR Biacore 8K, antibody captured, antigen analyte. As for the experimental part: The binding kinetics assay of antibody to antigen was performed using Biacore 8K system through human antibody capture approach. The […] Fc lgG were immobilized on CM5 sensor chip according to the manufactory's instruction. The test antibody was injected and captured by the immobilized anti-human Fc lgG. […] The assay system was regenerated by injection of 10 mM Glycine-HCl pH 1.5 for 30 seconds. The running buffer was HBS-EP+ (10 mM HEPES, pH 7.4, 150 mM NaCl, 3 mM EDTA and 0.05% P20). The assay temperature was 25° C., and the association and dissociation time were 180 and 600 seconds, respectively.
A general note: In SPR one partner is held on a chip, and binding of the other changes the refractive index at the surface.

For test [2], the target named is human PD-L1 on CHO-K1 cells (human, UniProt Q9NZQ7 19-290). In words: cell-based or functional assay.
Sequence of human PD-L1 on CHO-K1 cells (Q9NZQ7 19-290): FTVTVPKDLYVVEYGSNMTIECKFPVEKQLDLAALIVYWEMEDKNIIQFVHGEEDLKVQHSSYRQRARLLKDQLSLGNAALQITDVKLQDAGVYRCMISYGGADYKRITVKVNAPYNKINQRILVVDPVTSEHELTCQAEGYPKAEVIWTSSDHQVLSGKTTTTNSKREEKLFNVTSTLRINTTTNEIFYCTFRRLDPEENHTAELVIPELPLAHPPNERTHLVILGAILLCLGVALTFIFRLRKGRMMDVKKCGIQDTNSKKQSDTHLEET
Test [3] concerns the target T2, recombinant human PD-L1 His protein (human, UniProt Q9NZQ7 19-239).
T2 construct: not shown: His tag
In words: SPR Biacore T200, PD-L1 His on chip, sdAb analyte. As for the experimental part: Affinity constant (Kd) of each sdAb and HCAb was determined by surface plasmon resonance (SPR) on a BIAcore T200 instrument. Briefly, PD-L1 His was amine-coupled to a CMS sensor chip at a density of no higher than 100 RU. […] Flow rate was 30 μl/min in all experiments. Association and dissociation phases were 5 and 10 min, respectively. The chip was regenerated using Glycine/HCl pH 1.5. Binding curves at different concentrations of sdAbs and HCAbs were used to calculate the kinetic parameters kₒₙ, koff and KD.

For test [4], the target named is PD-L1 (blocking assay of Example 11) (UniProt Q9NZQ7 19-239, limits assumed). Description: cell-based or functional assay.
Sequence of PD-L1 (blocking assay of Example 11) (Q9NZQ7 19-239 limits assumed): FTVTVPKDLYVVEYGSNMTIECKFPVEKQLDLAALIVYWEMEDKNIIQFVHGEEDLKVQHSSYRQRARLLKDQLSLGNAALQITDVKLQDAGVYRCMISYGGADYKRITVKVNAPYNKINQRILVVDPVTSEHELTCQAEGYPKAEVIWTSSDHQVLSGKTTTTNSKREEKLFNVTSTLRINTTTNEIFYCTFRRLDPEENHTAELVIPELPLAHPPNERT

T1 sequence (P78324 other isoform, or with tags, fused parts or gaps mutant limits assumed): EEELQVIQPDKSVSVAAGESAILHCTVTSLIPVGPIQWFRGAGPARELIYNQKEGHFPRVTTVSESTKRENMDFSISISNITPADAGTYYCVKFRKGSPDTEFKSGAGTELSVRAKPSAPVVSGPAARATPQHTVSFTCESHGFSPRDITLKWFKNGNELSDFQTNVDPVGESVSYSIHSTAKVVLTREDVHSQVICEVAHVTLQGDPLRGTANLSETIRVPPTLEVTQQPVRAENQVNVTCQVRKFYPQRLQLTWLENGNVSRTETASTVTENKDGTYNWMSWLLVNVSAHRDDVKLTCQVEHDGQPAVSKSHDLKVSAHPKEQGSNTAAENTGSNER
T2 sequence (Q9NZQ7 19-239 limits assumed): as the sequence (Q9NZQ7 19-239 limits assumed) above

B1: HSP210-02-hz52 (antibody, V domains shown)
VH: QVQLVQSGAEVKKPGASVKVSCKASGFNFEDTYMHWVRQAPGQGLEWMGRIDPADADTKYNPKFQDRVTITVDTSTNTAYMELSSLRSEDTAVYYCVRGNYVNWGQGTTVTVSS
VL: EIVLTQSPGTLSLSPGERATLSCRASSSVSSSYLYWYQQKPGQAPRLLIYSTSNLASGIPDRFSGSGSGTDYTLTISRLEPEDAAVYFCHQWYSYPRTFGGGTKVEIK
notes: humanized 248G3F6, VH v5 + VL v2; also called SIRPa IgG#1 02-hz52
For orientation: Kd means a measure of binding affinity in units of concentration. As a reminder, the koff is the first-order rate constant of dissociation. By kon is commonly meant the rate constant with which the complex forms. In the case of B1, in test [1], the Kd is 7.4 nM, the koff was 0.00247 s⁻¹ and the kon was found to be 333000 M⁻¹ s⁻¹.

B2: AS06750 sdAb (VHH)
VHH: AVQLVESGGGLVQAGDSLRLSCTASGRTFLTYAVGWFRQAPGTEREFVAGIRWSGGYTDYADSVKGRFTISRDNAKNTVYLQMNSLKPEDTAVYYCAAHRTIATIPEKYEYEYWGQGTQVTVSS
notes: His6-tagged llama sdAb
Regarding B2, the “EC50 of PD-L1-based blockade assay (luciferase reporter)” value (“EC50 of PD-L1-based blockade assay” for short) in test [2] turned out to be 33.6 nM. For the same molecule, in test [3], the Kd turned out to be 0.109 nM, the koff is 0.000223 s⁻¹ and the kon stood at 2.05e+06 M⁻¹ s⁻¹.

B3: AS12003 sdAb (VHH)
VHH: EVQLVESGGGLVQAGDSLRLSCAASGRTFLSYAVGWFRQAPGTEREFVAGIRWSGGSTDYADSVKGRFTISRDNAKNTVYLQMNSLKPEDTAVYYCAAHRTIATVPNKYEYDTWGQGTQVTVSS
notes: His6-tagged llama sdAb
B3: the “EC50 of PD-L1-based blockade assay” value in test [2] turned out to be 96.2 nM. For the same molecule, in test [3], the Kd turned out to be 0.56 nM, the dissociation rate constant (koff) amounted to 0.00155 s⁻¹ and the kon is 2.76e+06 M⁻¹ s⁻¹.

B4: AS06618 sdAb (VHH)
VHH: EVQLVESGGRLVRAGDSLRLSCAASGRTFLSYAVGWFRQAPGTEREFVAGIRWSGGYTDYAEAVKGRFTISRDNAKNTVYLQMNSLKPEDTAVYYCAAHRTIATIPEKYEYEYWGQGTQVTVSS
notes: His6-tagged llama sdAb
Turning to B4, the “EC50 of PD-L1-based blockade assay” value in test [2] came out at 44.5 nM. Further, in test [3], the Kd amounted to 0.17 nM, the koff turned out to be 0.000245 s⁻¹ and the association rate constant (kon) stood at 1.44e+06 M⁻¹ s⁻¹.

B5: AS06617 sdAb (VHH)
VHH: DVQLVESGGGLVQAGDSLRLSCAASGRTFISYAVGWFRQAPGSEREFVAGIRWNGIHTDYADSVKGRFTISRDNAKNTVTLEMTSLKPEDTAVYYCAAHRTIATIPEKYEYEYWGQGTQVTVSS
notes: His6-tagged llama sdAb
In the case of B5, the “EC50 of PD-L1-based blockade assay” value in test [2] was found to be 63.8 nM. Further, in test [3], the Kd was 0.249 nM, the koff is 0.000464 s⁻¹ and the kon turned out to be 1.86e+06 M⁻¹ s⁻¹.

B6: AS06682 sdAb (VHH)
VHH: AVQLVESGGGLVQAGDSLRLSCTASGRTFLSYAVGWFRQAPGTEREFVAGIRWSGEHTDYAASVKGRFTISRDNAKNTVYLQMNSLKPEDTAVYYCAAHTTIATIPKKYEYEYWGQGTQVTVSS
notes: His6-tagged llama sdAb
As for B6, the “EC50 of PD-L1-based blockade assay” value in test [2] stood at 42 nM. In test [3], the Kd is 0.203 nM, the koff was found to be 0.000342 s⁻¹ and the kon was found to be 1.68e+06 M⁻¹ s⁻¹.

B7: AS06775 sdAb (VHH)
VHH: QVQLVESGGGLVQAGDSLRLSCAASGRTFLTLAVGWFRQAPGTEREFVAGIRWSGSGTDYADSVKGRFTISRDNAKNTVYLQMNSLKPEDTAVYYCAAHTTIATIPEKYEYEYWGRGTQVTVSS
notes: His6-tagged llama sdAb
As to B7, in test [2], the “EC50 of PD-L1-based blockade assay” value was 75.5 nM. In test [3], the Kd came out at 0.156 nM, the koff turned out to be 0.000247 s⁻¹ and the on-rate constant (kon) amounted to 1.58e+06 M⁻¹ s⁻¹.

B8: AS06686 sdAb (VHH)
VHH: AVQLVESGGGLVQAGDSLRLACAASGRTFLTYALGWFRQAPGKEREFVAGVSWSGSSTKYADSVKGRFTISRDNAKNTVYMQMNSLKPEDTAVYYCAAQISAIVPISAHEYQYWGQGTQVTVSS
notes: His6-tagged llama sdAb
In the case of B8, in test [2], the “EC50 of PD-L1-based blockade assay” value was determined as 352 nM. In addition, in test [3], the dissociation constant (Kd) amounted to 0.346 nM, the koff amounted to 0.000965 s⁻¹ and the kon amounted to 2.79e+06 M⁻¹ s⁻¹.

B9: PD-L1/SIRPa-HC2 (bispecific antibody, human IgG4 S228P, kappa)
heavy: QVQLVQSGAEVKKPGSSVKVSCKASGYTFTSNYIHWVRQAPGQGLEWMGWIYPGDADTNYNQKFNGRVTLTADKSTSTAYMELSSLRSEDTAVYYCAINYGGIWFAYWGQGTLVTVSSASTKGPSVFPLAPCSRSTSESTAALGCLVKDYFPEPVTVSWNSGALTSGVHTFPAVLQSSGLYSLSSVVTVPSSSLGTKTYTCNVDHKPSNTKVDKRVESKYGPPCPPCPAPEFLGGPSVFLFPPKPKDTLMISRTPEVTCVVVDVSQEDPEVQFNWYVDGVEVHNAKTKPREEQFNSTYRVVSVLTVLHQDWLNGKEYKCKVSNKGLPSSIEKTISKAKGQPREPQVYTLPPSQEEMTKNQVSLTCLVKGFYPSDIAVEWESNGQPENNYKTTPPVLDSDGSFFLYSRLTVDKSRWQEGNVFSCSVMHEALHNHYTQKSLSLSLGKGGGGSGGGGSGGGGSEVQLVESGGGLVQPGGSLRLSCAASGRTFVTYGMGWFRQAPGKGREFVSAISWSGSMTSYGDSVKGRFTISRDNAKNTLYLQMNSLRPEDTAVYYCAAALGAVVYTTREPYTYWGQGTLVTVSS
light: DIQMTQSPSSLSASVGDRVTITCQASQDIGNKLIWYQQKPGKAPKLLIYYVTNLPGGVPSRFSGSGSGTDFTLTISSLQPEDFATYYCLQYKQNPLTFGQGTKLEIKRTVAAPSVFIFPPSDEQLKSGTASVVCLLNNFYPREAKVQWKVDNALQSGNSQESVTEQDSKDSTYSLSSTLTLSKADYEKHKVYACEVTHQGLSSPVTKSFNRGEC
For B9, the “EC50, luminescence (RLU) in the PD-1/PD-L1 Blockade Assay” value (from here on “EC50, luminescence (RLU)”) in test [4] amounted to 1.28 nM.

B10: AS06628 sdAb (VHH)
VHH: QVQLVESGGGLVQAGGSLRLSCAASGRTFITYAIGWFRQAPGKEREFVTAINWSGSMTSYADSVKGRFTISRDNNKNMVYLQMNSLKPEDTAVYYCAAHRGAIAPMTQSVYDYWGQGTQVTVSS
notes: His6-tagged llama sdAb
Consider B10, for which, in test [2], the “EC50 of PD-L1-based blockade assay” value turned out to be 24.2 nM. Further, in test [3], the Kd amounted to 0.0526 nM, the koff stood at 0.000215 s⁻¹ and the kon worked out at 4.1e+06 M⁻¹ s⁻¹.

B11: AS06791 sdAb (VHH)
VHH: QVQLVESGGGLVQAGGSLRLSCAASGRTFITYAIGWFRQAPGKEREFVTAINWSGSMTSYADSVKGRFTISRDNAKNTVYLQINGLKSEDTAVYYCAAHRGAIAPMTQSVYDYWGQGTQVTVSS
notes: His6-tagged llama sdAb
Turning to B11, the “EC50 of PD-L1-based blockade assay” value in test [2] came out at 36.5 nM. Also, in test [3], the dissociation constant Kd worked out at 0.153 nM, the koff came out at 0.000239 s⁻¹ and the kon is 1.56e+06 M⁻¹ s⁻¹.

B12: AS06730 sdAb (VHH)
VHH: QVQLVESGGGLVQAGGSLRLSCAASGRTFITYAIGWFRQAPGKEREFVSAINWSGSMTSYADSVKGRFTISRDNAKNTVYLQMNGLKPEDTAVYYCAAHRGAIAPIAQSVYTNWGQGTQVTVSS
notes: His6-tagged llama sdAb
Consider B12, for which, in test [2], the “EC50 of PD-L1-based blockade assay” value stood at 17.2 nM. Further, in test [3], the Kd turned out to be 0.0195 nM, the koff worked out at 0.000139 s⁻¹ and the kon was 7.11e+06 M⁻¹ s⁻¹.

B13: AS06703 sdAb (VHH)
VHH: EVQLVESGGGLVRAGGSLRLSCAASGRTFITYAIGWFRQAPGKEREFVTAINWSGSMTSYADSVKGRFTISRDNNKNTVYLQMNSLKPEDTALYYCAAHLGAIAPMSQSVYDYWGQGTQVTVSS
notes: His6-tagged llama sdAb
For B13, the “EC50 of PD-L1-based blockade assay” value in test [2] is 15 nM. Moreover, in test [3], the Kd came to 0.0387 nM, the koff came to 6.96e-05 s⁻¹ and the kon worked out at 1.8e+06 M⁻¹ s⁻¹.

B14: PD-L1/SIRPa-LN1 (bispecific antibody, human IgG4 S228P, kappa)
heavy: not shown
light: EVQLVESGGGLVQPGGSLRLSCAASGRTFVTYGMGWFRQAPGKGREFVSAISWSGSMTSYGDSVKGRFTISRDNAKNTLYLQMNSLRPEDTAVYYCAAALGAVVYTTREPYTYWGQGTLVTVSSGGGGSGGGGSGGGGSEIVLTQSPGTLSLSPGERATLSCRASSSVSSSYLYWYQQKPGQAPRLLIYSTSNLASGIPDRFSGSGSGTDYTLTISRLEPEDAAVYFCHQWYSYPRTFGGGTKVEIKRTVAAPSVFIFPPSDEQLKSGTASVVCLLNNFYPREAKVQWKVDNALQSGNSQESVTEQDSKDSTYSLSSTLTLSKADYEKHKVYACEVTHQGLSSPVTKSFNRGEC
B14: the “EC50, luminescence (RLU)” value in test [4] was 1.13 nM.

B15: AS06778 sdAb (VHH)
VHH: QVQLVESGGGLVQAGGSLKLSCAASGRTFITYAMGWFRQAPGKERELVAAISWSGSSTYSADSVKGRFTISRDNAKNTVYLQMNSLKPEDTAVYYCAAEVSARTGEHLPKLMGDYWGQGTQVTVSS
notes: His6-tagged llama sdAb
As to B15, in test [2], the “EC50 of PD-L1-based blockade assay” value came out at 20.1 nM. For the same molecule, in test [3], the Kd amounted to 0.0233 nM, the dissociation rate constant (koff) is 4.42e-05 s⁻¹ and the kon was 1.9e+06 M⁻¹ s⁻¹.

B16: AS11947 sdAb (VHH)
VHH: DVQLVESGGGLVQAGDSLRLTCSASGRTFISYAVGWFRQAPGTEREFVAGIRWNGISTDYTDSVKGRFTISRDNAKNTVYLQMNSLKPEDTAIYYCAAHRTIATIPNKYEYDHWGQGTQVTVSS
notes: His6-tagged llama sdAb
As for B16, the “EC50 of PD-L1-based blockade assay” value in test [2] turned out to be 77.2 nM. For the same molecule, in test [3], the Kd came out at 0.617 nM, the koff came out at 0.00118 s⁻¹ and the association rate constant (kon) came to 1.92e+06 M⁻¹ s⁻¹.

B17: AS11948 sdAb (VHH)
VHH: EVQLVESGGGLVQAGDSLRLSCVASGRTFVTYGMGWFRQAPGKEREFVAAINWSGSMTSYGDSVKGRFAISRDNAKNTVYLQMNSLKPEDTAVYYCAAALGAVVYTTREPYTYWGRGTQVTVSS
notes: His6-tagged llama sdAb
Take B17: the “EC50 of PD-L1-based blockade assay” value in test [2] is 25.2 nM. In addition, in test [3], the Kd stood at 0.167 nM, the koff came to 0.000394 s⁻¹ and the kon turned out to be 2.37e+06 M⁻¹ s⁻¹.

B18: PD-L1/SIRPa-LC1 (bispecific antibody, human IgG4 S228P, kappa)
heavy: not shown
light: EIVLTQSPGTLSLSPGERATLSCRASSSVSSSYLYWYQQKPGQAPRLLIYSTSNLASGIPDRFSGSGSGTDYTLTISRLEPEDAAVYFCHQWYSYPRTFGGGTKVEIKRTVAAPSVFIFPPSDEQLKSGTASVVCLLNNFYPREAKVQWKVDNALQSGNSQESVTEQDSKDSTYSLSSTLTLSKADYEKHKVYACEVTHQGLSSPVTKSFNRGECGGGGSGGGGSGGGGSEVQLVESGGGLVQPGGSLRLSCAASGRTFVTYGMGWFRQAPGKGREFVSAISWSGSMTSYGDSVKGRFTISRDNAKNTLYLQMNSLRPEDTAVYYCAAALGAVVYTTREPYTYWGQGTLVTVSS
For the molecule B18, the “EC50, luminescence (RLU)” value in test [4] stood at 1.36 nM.
